According to paper PMC11206880, “The RNA Helicase Ded1 from Yeast Is Associated with the Signal Recognition Particle and Is Regulated by SRP21” (Molecules, 2024):
Blank lines part the entries; values can stand above or below the binder they belong to.

What was measured:
Recombinant Ded1-His [1] = target: T1, Recombinant Ded1-His (Saccharomyces cerevisiae, UniProt P06634 1-604); assay: co-IP; purified Ded1 (4 µg) incubated with one purified SRP protein (4-6 µg), no RNA, 1x PBS with 2 mM MgCl2, 45 min, 30 °C; recovered with Ded1-specific IgG cross-linked to protein A-Sepharose beads; SDS-PAGE, Coomassie blue; conditions: both partners purified
T1 construct: Ded1, DEAD-box RNA helicase of budding yeast, expressed from the pET22b plasmid; also called purified Ded1
T1 sequence (P06634 whole entry): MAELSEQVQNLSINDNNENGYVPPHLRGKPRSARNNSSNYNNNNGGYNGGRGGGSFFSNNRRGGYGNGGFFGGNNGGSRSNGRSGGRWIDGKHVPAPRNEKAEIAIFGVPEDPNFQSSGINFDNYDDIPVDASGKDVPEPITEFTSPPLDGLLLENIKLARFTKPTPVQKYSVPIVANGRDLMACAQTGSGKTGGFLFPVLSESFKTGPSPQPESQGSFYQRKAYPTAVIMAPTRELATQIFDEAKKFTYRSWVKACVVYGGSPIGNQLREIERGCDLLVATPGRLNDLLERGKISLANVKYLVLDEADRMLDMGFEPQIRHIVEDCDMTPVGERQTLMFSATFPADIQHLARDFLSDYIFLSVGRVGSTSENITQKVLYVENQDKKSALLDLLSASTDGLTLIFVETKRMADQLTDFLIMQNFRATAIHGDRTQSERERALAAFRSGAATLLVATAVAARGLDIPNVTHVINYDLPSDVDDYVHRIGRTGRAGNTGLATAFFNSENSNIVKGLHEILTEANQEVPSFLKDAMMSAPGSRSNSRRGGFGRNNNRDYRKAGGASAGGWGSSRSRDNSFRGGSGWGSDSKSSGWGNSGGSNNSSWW

Recombinant Ded1-His [2] = target: T1, Recombinant Ded1-His; assay: co-IP; as a3, but SRP14, SRP21, SRP54 and Sec65 incubated together with Ded1; recovered with Ded1-specific IgG beads; conditions: both partners purified

- binding result (Recombinant Ded1-His [1]): binds
B1: His-tagged Sec65 (natural protein, yeast (S. cerevisiae), UniProt P29478 1-273, looked up)
chain: MPRLEEIDDFNDIDDLDMELAELDPSLRTPIAPKITPKVVRSQDQENPAFLPGTNNNSNSNNNSSNEKEQLSFINPKTGKVERSEAISKKDLEEVKRFQVLYPCYFDINRSHKEGRRVPKELAVENPLAKTMADAVRELGILCIFEGEKCHPQDFGNPGRIRVLFKENGQLIGAATKFKGGKRQLMKAVGEYMKRHPTTIESLREIPYGPDFDNIEFKKIPRVKGFKMNEIVPLHSPFLMGHPMTKSVYETPKITAAEKSFKPPKNKYKVVRR
notes: Sec65 of yeast, cloned into the XhoI and BamHI sites of pET19b; source: E. coli Rosetta (DE3), purified (Ni-NTA)

- binding result (Recombinant Ded1-His [2]): binds
B2: His-tagged SRP14 (natural protein, yeast (S. cerevisiae), UniProt P38985 1-146, looked up)
chain: MANTGCLSPGAFLSKVPEFFQTANEKHITVRLTAKRLIEHDPVEGNLEFDSTNHPDYDVSKKASEISVSSRSDREYPLLIRMSYGSHDKKTKCSTVVKASELDQFWQEYSSVFKGGMQNLIKKKKKKSKNGTISKTGKKNKVAKKN
notes: SRP14 of yeast, subcloned into the NdeI and XhoI sites of pET22b; source: E. coli Rosetta (DE3), purified (Ni-NTA)
